The values that follow are results of earlier work, collected in PMC3535496.

The target in the data set is Jun TAD (Homo sapiens) (UniProt P05412).
Sequence of UniProt P05412 (P05412 47-89): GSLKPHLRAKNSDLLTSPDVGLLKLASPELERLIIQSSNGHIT

As usually defined, the Kd is the equilibrium constant for the complex coming apart. Turning to CBP KIX (from UniProt Q92793), the equilibrium dissociation constant (Kd) was 30 µM.
